Test results: patent publication US20230220589A1

B1: engineered M44-L binder (SEQ ID NO: 21) (designed binder, not shown: small tags and cut ends; large carriers)
chain: QVSVQPNFQQDKFLGRWFYAGHASNSSWYREKVAALSMAKLVVAPATDGGLNATETFLRKNQCETITSLLQPAGSLGSYSSRSPHGGSTWSTSVVETDYDQYALLYLQGSKGPGEDFRGAILASRTQTPRAELKEKFTAFSKAQGFTEDTIVFLPQTDKCMTEQ
B2: engineered M44-A binder (SEQ ID NO: 42) (designed binder, not shown: small tags and cut ends; large carriers)
chain: QVSVQPNFQQDKFLGRWFVAGLASNSSWDREKVAALSGAKMVVAPATDGGLNVTRTMLRKNQCETYTGLLQPAGSLGSYSWRSPHPGSTGSESVVETDYDQYALVYGQGSKGPGEDLRAAALWSRTQTPRAELKEKFTAFSKAQGFTEDTIVFLPQTDKCMTEQ
B3: engineered M44-L binder (SEQ ID NO: 31) (designed binder, not shown: small tags and cut ends; large carriers)
chain: QDSTQNLIPAPPLISVPLQPGFWTERFQGRWFLVGFAGNAVQKERQSRLTMQSLILELQEDNSYNITAINVRGQGCRYIISTLVPSSRPGQFTLGNIHSYPQIQSLDVQVADTDYDQFAMVFLQGTSENKQYFEVALAGRTKGLSDELKERFVSFAKSLGLKDNNIVFSVPTDQCIDN

Target: M44-modified Y NTAA target peptides (M44-Y-P2-peptide)
Test: encoding assay; P2 L

Row | Binder | encoding yield
1 | B1 | 0.03
2 | B2 | 0.07
3 | B3 | 0.09

Target: M44-modified W NTAA target peptides
Test: encoding assay; P2 L

Row | Binder | encoding yield
4 | B1 | 0.02
5 | B2 | 0.02
6 | B3 | 0.05

Target: M44-modified M NTAA target peptides
Test: encoding assay; P2 L

Row | Binder | encoding yield
7 | B1 | 0.03
8 | B2 | 0.04
9 | B3 | 0.08

Target: M44-modified S NTAA target peptides
Test: encoding assay; P2 L

Row | Binder | encoding yield
10 | B1 | 0.02
11 | B2 | 0.27
12 | B3 | 0.05

Target: M44-modified Q NTAA target peptides
Test: encoding assay; P2 L

Row | Binder | encoding yield
13 | B1 | 0.02
14 | B2 | 0.04
15 | B3 | 0.04

Target: M44-modified N NTAA target peptides
Test: encoding assay; P2 L

Row | Binder | encoding yield
16 | B1 | 0.02
17 | B2 | 0.05
18 | B3 | 0.17

Target: M44-modified F NTAA target peptides (M44-F-P2-peptide)
Test: encoding assay; P2 L

Row | Binder | encoding yield
19 | B1 | 0.01
20 | B2 | 0.02
21 | B3 | 0.06

Target: M44-modified L NTAA target peptides (M44-L-P2-peptide)
Test: encoding assay; P2 L

Row | Binder | encoding yield
22 | B1 | 0.22
23 | B2 | 0.18
24 | B3 | 0.46

Target: M44-modified P NTAA target peptides
Test: encoding assay; P2 L

Row | Binder | encoding yield
25 | B1 | 0.01
26 | B2 | 0.02
27 | B3 | 0.02

Target: M44-modified G NTAA target peptides (M44-G-P2-peptide)
Test: encoding assay; P2 L

Row | Binder | encoding yield
28 | B1 | 0.01
29 | B2 | 0.16
30 | B3 | 0.02

Target: M44-modified V NTAA target peptides
Test: encoding assay; P2 L

Row | Binder | encoding yield
31 | B1 | 0.02
32 | B2 | 0.15
33 | B3 | 0.04

Target: M44-modified T NTAA target peptides
Test: encoding assay; P2 L

Row | Binder | encoding yield
34 | B1 | 0.01
35 | B2 | 0.11
36 | B3 | 0.02

Target: M44-modified A NTAA target peptides (M44-A-P2-peptide)
Test: encoding assay; P2 L

Row | Binder | encoding yield
37 | B1 | 0.01
38 | B2 | 0.37
39 | B3 | 0.03

Target: M44-modified E NTAA target peptides
Test: encoding assay; P2 L

Row | Binder | encoding yield
40 | B1 | 0.01
41 | B2 | 0.03
42 | B3 | 0.03

Target: M44-modified I NTAA target peptides (M44-I-P2-peptide)
Test: encoding assay; P2 L

Row | Binder | encoding yield
43 | B1 | 0.03
44 | B2 | 0.03
45 | B3 | 0.06

Target: M44-modified D NTAA target peptides
Test: encoding assay; P2 L

Row | Binder | encoding yield
46 | B1 | 0.01
47 | B2 | 0.02
48 | B3 | 0.03

Target: M44-modified H NTAA target peptides
Test: encoding assay; P2 L

Row | Binder | encoding yield
49 | B1 | 0.01
50 | B2 | 0.03
51 | B3 | 0.03

Target: M44-modified Y NTAA target peptides (M44-Y-P2-peptide)
Test: encoding assay; P2 M;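 note: fraction of recording tags encoded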

Row | Binder | encoding yield
52 | B1 | 0.01
53 | B2 | 0.03
54 | B3 | 0.03

Target: M44-modified Y NTAA target peptides (M44-Y-P2-peptide)
Test: encoding assay; P2 T

Row | Binder | encoding yield
55 | B1 | 0.02
56 | B2 | 0.05
57 | B3 | 0.07

Target: M44-modified M NTAA target peptides
Test: encoding assay; P2 T

Row | Binder | encoding yield
58 | B1 | 0
59 | B2 | 0.01
60 | B3 | 0.01

Target: M44-modified Q NTAA target peptides
Test: encoding assay; P2 T

Row | Binder | encoding yield
61 | B1 | 0.01
62 | B2 | 0.05
63 | B3 | 0.02

Target: M44-modified N NTAA target peptides
Test: encoding assay; P2 T

Row | Binder | encoding yield
64 | B1 | 0.01
65 | B2 | 0.03
66 | B3 | 0.02

Target: M44-modified F NTAA target peptides (M44-F-P2-peptide)
Test: encoding assay; P2 T

Row | Binder | encoding yield
67 | B1 | 0.02
68 | B2 | 0.04
69 | B3 | 0.05

Target: M44-modified L NTAA target peptides (M44-L-P2-peptide)
Test: encoding assay; P2 T

Row | Binder | encoding yield
70 | B1 | 0.1
71 | B2 | 0.05
72 | B3 | 0.15

Target: M44-modified P NTAA target peptides
Test: encoding assay; P2 T

Row | Binder | encoding yield
73 | B1 | 0.01
74 | B2 | 0.05
75 | B3 | 0.02

Target: M44-modified G NTAA target peptides (M44-G-P2-peptide)
Test: encoding assay; P2 T

Row | Binder | encoding yield
76 | B1 | 0.01
77 | B2 | 0.07
78 | B3 | 0.04

Target: M44-modified V NTAA target peptides
Test: encoding assay; P2 T

Row | Binder | encoding yield
79 | B1 | 0.02
80 | B2 | 0.05
81 | B3 | 0.04

Target: M44-modified T NTAA target peptides
Test: encoding assay; P2 T

Row | Binder | encoding yield
82 | B1 | 0.01
83 | B2 | 0.1
84 | B3 | 0.04

Target: M44-modified A NTAA target peptides (M44-A-P2-peptide)
Test: encoding assay; P2 T

Row | Binder | encoding yield
85 | B1 | 0.01
86 | B2 | 0.24
87 | B3 | 0.03

Target: M44-modified E NTAA target peptides
Test: encoding assay; P2 T

Row | Binder | encoding yield
88 | B1 | 0.01
89 | B2 | 0.01
90 | B3 | 0.01

Target: M44-modified I NTAA target peptides (M44-I-P2-peptide)
Test: encoding assay; P2 T

Row | Binder | encoding yield
91 | B1 | 0.14
92 | B2 | 0.05
93 | B3 | 0.07

Target: M44-modified Y NTAA target peptides (M44-Y-P2-peptide)
Test: encoding assay; P2 I

Row | Binder | encoding yield
94 | B1 | 0.03
95 | B2 | 0.1
96 | B3 | 0.07

Target: M44-modified W NTAA target peptides
Test: encoding assay; P2 I

Row | Binder | encoding yield
97 | B1 | 0.02
98 | B2 | 0.02
99 | B3 | 0.05

Target: M44-modified M NTAA target peptides
Test: encoding assay; P2 I

Row | Binder | encoding yield
100 | B1 | 0.03
101 | B2 | 0.01
102 | B3 | 0.03

Target: M44-modified S NTAA target peptides
Test: encoding assay; P2 I

Row | Binder | encoding yield
103 | B1 | 0.02
104 | B2 | 0.1
105 | B3 | 0.03

Target: M44-modified Q NTAA target peptides
Test: encoding assay; P2 I

Row | Binder | encoding yield
106 | B1 | 0.01
107 | B2 | 0.03
108 | B3 | 0.01

Target: M44-modified N NTAA target peptides
Test: encoding assay; P2 I

Row | Binder | encoding yield
109 | B1 | 0.01
110 | B2 | 0.03
111 | B3 | 0.05

Target: M44-modified F NTAA target peptides (M44-F-P2-peptide)
Test: encoding assay; P2 I

Row | Binder | encoding yield
112 | B1 | 0.01
113 | B2 | 0.02
114 | B3 | 0.05

Target: M44-modified L NTAA target peptides (M44-L-P2-peptide)
Test: encoding assay; P2 I

Row | Binder | encoding yield
115 | B1 | 0.06
116 | B2 | 0.03
117 | B3 | 0.15

Target: M44-modified G NTAA target peptides (M44-G-P2-peptide)
Test: encoding assay; P2 I

Row | Binder | encoding yield
118 | B1 | 0.02
119 | B2 | 0.1
120 | B3 | 0.02

Target: M44-modified V NTAA target peptides
Test: encoding assay; P2 I

Row | Binder | encoding yield
121 | B1 | 0.03
122 | B2 | 0.11
123 | B3 | 0.06

Target: M44-modified T NTAA target peptides
Test: encoding assay; P2 I

Row | Binder | encoding yield
124 | B1 | 0.01
125 | B2 | 0.12
126 | B3 | 0.04

Target: M44-modified A NTAA target peptides (M44-A-P2-peptide)
Test: encoding assay; P2 I

Row | Binder | encoding yield
127 | B1 | 0.01
128 | B2 | 0.2
129 | B3 | 0.03

Target: M44-modified E NTAA target peptides
Test: encoding assay; P2 I

Row | Binder | encoding yield
130 | B1 | 0.01
131 | B2 | 0.03
132 | B3 | 0.03

Target: M44-modified I NTAA target peptides (M44-I-P2-peptide)
Test: encoding assay; P2 I

Row | Binder | encoding yield
133 | B1 | 0.13
134 | B2 | 0.08
135 | B3 | 0.14

Target: M44-modified D NTAA target peptides
Test: encoding assay; P2 I

Row | Binder | encoding yield
136 | B1 | 0.01
137 | B2 | 0.03
138 | B3 | 0.03

Target: M44-modified H NTAA target peptides
Test: encoding assay; P2 I

Row | Binder | encoding yield
139 | B1 | 0.01
140 | B2 | 0.04
141 | B3 | 0.03

Target: M44-modified F NTAA target peptides (M44-F-P2-peptide)
Test: encoding assay; P2 Y

Row | Binder | encoding yield
142 | B1 | 0.02
143 | B2 | 0.04
144 | B3 | 0.13

Target: M44-modified P NTAA target peptides
Test: encoding assay; P2 Y

Row | Binder | encoding yield
145 | B1 | 0.02
146 | B2 | 0.03
147 | B3 | 0.03

Target: M44-modified T NTAA target peptides
Test: encoding assay; P2 Y

Row | Binder | encoding yield
148 | B1 | 0.01
149 | B2 | 0.1
150 | B3 | 0.05

Target: M44-modified E NTAA target peptides
Test: encoding assay; P2 Y

Row | Binder | encoding yield
151 | B1 | 0.01
152 | B2 | 0.02
153 | B3 | 0.03
